Experimental data as given in article PMC5686545.

Tests used:
[1] = molecular target: microtubules of porcine brain tubulin (pig (endogenous in brain)) (UniProt P02550)
[2] = molecular target: GFP-tagged human cytoplasmic dynein complex (human) (UniProt Q14204); assay: TIRF microscopy of purified proteins on static GMPCPP microtubules (single-particle colocalisation); 5 nM GFP-dynein, 10 nM pig dynactin, 200 nM BicD2-N, 50 nM mCherry-Lis1; immobilised GMPCPP microtubules; assay buffer AB
[3] = molecular target: GFP-tagged human cytoplasmic dynein complex (human) (UniProt Q14204); assay: TIRF microscopy of purified proteins on static GMPCPP microtubules (single-particle colocalisation); 5 nM GFP-dynein, 10 nM pig dynactin, 200 nM BicD2-N, 50 nM mCherry-Lis1; immobilised GMPCPP microtubules; HEPES-based buffer (60 mM HEPES pH 7.4, 50 mM K-acetate, 2 mM MgCl2, 10% glycerol, 2 mM ATP)

## native dynactin complex from pig brain (from UniProt A0A287B8J2 1-1281; A0A5G2QD80 1-405; F2Z5G5 1-349)
[1]
  initiation probability of processive DDB runs within the first 360 nm from the growing microtubule plus end, without EB1 (average 0.05 per 360 nm segment anywhere on the microtubule): 0.33

B1: mCherry-Lis1 (human Lissencephaly-1) (natural protein)
chain: MVLSQRQRDELNRAIADYLRSNGYEEAYSVFKKEAELDVNEELDKKYAGLLEKKWTSVIRLQKKVMELESKLNEAKEEFTSGGPLGQKRDPKEWIPRPPEKYALSGHRSPVTRVIFHPVFSVMVSASEDATIKVWDYETGDFERTLKGHTDSVQDISFDHSGKLLASCSADMTIKLWDFQGFECIRTMHGHDHNVSSVAIMPNGDHIVSASRDKTIKMWEVQTGYCVKTFTGHREWVRMVRPNQDGTLIASCSNDQTVRVWVVATKECKAELREHEHVVECISWAPESSYSSISEATGSETKKSGKPGPFLLSGSRDKTIKMWDVSTGMCLMTLVGHDNWVRGVLFHSGGKFILSCADDKTLRVWDYKNKRCMKTLNAHEHFVTSLDFHKTAPYVVTGSVDQTVKVWECR
[2]
  percent of processive DDB particles with Lis1 bound: 9%
[3]
  percent of processive DDB particles with Lis1 bound: 16%
